Assay results taken from US20110111494A1 (APOGENIX, published 2011).

Biological target: T1, recombinant CD95-ligand (UniProt P48023 142-281, limits assumed)
T1 sequence (looked up): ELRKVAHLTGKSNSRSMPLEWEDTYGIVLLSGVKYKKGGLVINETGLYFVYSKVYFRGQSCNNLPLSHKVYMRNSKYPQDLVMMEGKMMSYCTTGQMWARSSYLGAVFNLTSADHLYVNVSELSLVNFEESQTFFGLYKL
Experiment: cell-based or functional assay

| Molecule | EC50 (inhibition of CD95L-induced apoptosis of Jurkat cells, Caspase 3/7 activity, Ac-DEVD-AFC cleavage) [ng/mL] |
| --- | --- |
| dimeric CD95R-Fc fusion protein APG101 (from UniProt P25445 26-172) | 594 |
| hs95R-A69-St (CD95R-RB69 fusion polypeptide) (receptor) RLSSKSVNAQVTDINSKGLELRKTVTTVETQNLEGLHHDGQFCHKPCPPGERKARDCTVNGDEPDCVPCQEGKEYTDKAHFSSKCRRCRLCDEGHGLEVEINCTRTQNTKCRCKPNFFCNSTVCEHCDPCTKCEHGIIKECTLTSNTKCKEEGSSGSSGSSGSGYIEDAPSDGKFYVRKDGAWVELPTASGPSSSSSSAWSHPQFEK | 87.6 |
| hs95R-AT4-St (CD95R-T4 foldon fusion polypeptide) (receptor) RLSSKSVNAQVTDINSKGLELRKTVTTVETQNLEGLHHDGQFCHKPCPPGERKARDCTVNGDEPDCVPCQEGKEYTDKAHFSSKCRRCRLCDEGHGLEVEINCTRTQNTKCRCKPNFFCNSTVCEHCDPCTKCEHGIIKECTLTSNTKCKEEGSSGSSGSSGSGYIPEAPRDGQAYVRKDGEWVLLSTFLSGPSSSSSSAWSHPQFEK | 92.6 |
| hs95R-ASPD-St (CD95R-SP-D fusion polypeptide) (receptor) RLSSKSVNAQVTDINSKGLELRKTVTTVETQNLEGLHHDGQFCHKPCPPGERKARDCTVNGDEPDCVPCQEGKEYTDKAHFSSKCRRCRLCDEGHGLEVEINCTRTQNTKCRCKPNFFCNSTVCEHCDPCTKCEHGIIKECTLTSNTKCKEEGSSGSSGSSGSGLPDVASLRQQVEALQGQVQHLQAAFSQYKKVELFPNGQSVGEKIFKTAGFVKPFTEAQLLCTQAGGQLASPRSAAENAALQQLVVAKNEAAFLSMTDSKTEGKFTYPTGESLVYSNWAPGEPNDDGGSEDCVEIFTNGKWNDRACGEKRLVVCEFGGSPSSSSSSAWSHPQFEK | 573 |
